The target in experiment [1] is 1PGE-THIVC SOSIP.664 gp140 Env trimer (HIV-1 clade C). In words: negative-stain EM; SEC-purified trimers at 0.01-0.03 mg/ml on carbon-coated grids, 2% uranyl formate, 2D class averages.
In a further experiment the target is PGT145. In words: D-7324 capture ELISA. To be noted: value read at the highest antibody concentration, PGT145 10 µg/ml; parent: est. 1.3; read off a plot.
The target in a further experiment is CD4-IgG2 (UniProt P01730). In words: D-7324 capture ELISA. To be noted: value read at the highest concentration, CD4-IgG2 10 µg/ml; parent: est. 2.5; read off a plot. For orientation: In an ELISA, binding on a coated surface is turned into a signal by an enzyme label.
The target of another experiment is VRC01. In words: D-7324 capture ELISA. To be noted: value read at the highest antibody concentration, VRC01 10 µg/ml; parent: est. 2.8; read off a plot.

From publication PMC8055034 come the findings set out here.

As a reminder, the stoichiometry N is the number of molecules, sites or subunits per partner or assembly. Consider “1PGE-THIVC SOSIP.664 gp140 Env trimer (complex)”, for which, in experiment [1], the stoichiometry N was determined as 3.

In the case of “1PGE-THIVC SOSIP.664 gp140 Env trimer N279E”, the response amounted to 1.3 A450 with PGT145, 0.98 A450 with CD4-IgG2 and 0.93 A450 in the experiment with VRC01.
